From publication PMC11342371

What was measured:
[1] = molecular target: human C-reactive protein (human) (UniProt P02741); test: mass photometry; in ammonium acetate; decamer to pentamers
[2] = molecular target: human C-reactive protein (human) (UniProt P02741); test: native MS; 0.5, 1 and 7 uM, ammonium acetate; decamer to pentamers
[3] = molecular target: human C-reactive protein (human) (UniProt P02741); test: mass photometry; nanohole-PEG surface (10 ug cm^-2 of 100 nm SNPs), PBS pH 7.2, across different analyte concentrations (500 nM shown), at equilibrium; decamer to pentamers, KD = [monomer]^2/[dimer] with the pentamer as the monomer

Substance “human C-reactive protein (from UniProt P02741 19-224) (natural protein)” has a Kd [1] of 3.4 µM, a Kd [2] of 2.46 µM and a Kd [3] of 2.6 µM. It also gave a stoichiometry N [3] of 10.
